Source: publication PMC6182141, “Lytic gene expression in the temperate bacteriophage GIL01 is activated by a phage-encoded LexA homologue”

How the values were obtained:
[1] = target: T1, gp7 (Bacillus thuringiensis phage GIL01) (UniProt Q7WSG2); assay: EMSA; details: SPR: 25 mM Tris-HCl pH 7.4, 140 mM NaCl, 5 mM EDTA, 2 mM DTT, 0.1 mg/ml BSA, 0.005% P20, 25 C; EMSA and footprinting buffers as in cited work
T1 sequence: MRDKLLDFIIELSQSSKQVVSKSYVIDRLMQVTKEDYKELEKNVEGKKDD

gp6 [2] = target: T2, gp6 (Bacillus thuringiensis phage GIL01, UniProt Q5ILC6); assay: SPR; SPR: 25 mM Tris-HCl pH 7.4, 140 mM NaCl, 5 mM EDTA, 2 mM DTT, 0.1 mg/ml BSA, 0.005% P20, 25 C; EMSA and footprinting buffers as in cited work; details: protein: recombinant, tags: N-terminal His6 + thrombin site, chain copies: 2, label: 3'-biotin-TEG on S1 capture oligo, 5' overhang 15 nt annealed to immobilized S1 (S39)
T2 sequence: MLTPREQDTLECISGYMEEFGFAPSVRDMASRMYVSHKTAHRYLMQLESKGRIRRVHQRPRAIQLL

gp6 K38A = target: T3, gp6 K38A (Bacillus thuringiensis phage GIL01, UniProt Q5ILC6 1-66, K38A); assay: SPR; 2.34-150 nM; SPR: 25 mM Tris-HCl pH 7.4, 140 mM NaCl, 5 mM EDTA, 2 mM DTT, 0.1 mg/ml BSA, 0.005% P20, 25 C; EMSA and footprinting buffers as in cited work; details: protein: recombinant; tags: N-terminal His6 + thrombin site; chain copies: 2; label: 3'-biotin-TEG on S1 capture oligo; 36 bp duplex, 5' overhang 15 nt annealed to immobilized S1 (S39)
T3 sequence: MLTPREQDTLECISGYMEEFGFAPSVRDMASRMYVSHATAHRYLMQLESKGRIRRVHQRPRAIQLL

gp6 [3] = target: T2, gp6; assay: SPR; gp6 2.34-150 nM (Fig. 6D); SPR: 25 mM Tris-HCl pH 7.4, 140 mM NaCl, 5 mM EDTA, 2 mM DTT, 0.1 mg/ml BSA, 0.005% P20, 25 C; EMSA and footprinting buffers as in cited work; details: protein: recombinant; tags: N-terminal His6 + thrombin site; chain copies: 2; label: 3'-biotin-TEG on S1 capture oligo; 36 bp duplex, 5' overhang 15 nt annealed to immobilized S1 (S39)

TGTTGAACAAGGAATAGTAGAAAAGGACTAGCAAAGTTGCTAGTCTTTTTTATTTGTCCAAAATGACACACGTGTGACGTTATGCGGAACACTCGTTCGTATTATAGTATACATATAGCGAACAAACATTCGATAAGGAGTGTGACAAAGTGGATGCTTTAACGGAACTAATCATAGCTAACAATAAAGTGGAAATGCTT (double strand) [P3 fragment with dinBox2 and dinBox3 (EMSA7/EMSA10)]
binding [1]: no binding

B1: B23_Lwt (-35, dinBox2, dinBox3) (dsDNA)
DNA 1: GTTACTACTCGAGCGATTTGTCCAAAATGACACACGTGTGACGTTATGCGGAACACTCGTTCGTATTATAGTATACATATAGCGAACAAACATTCGATAAGGAG
DNA 2: CTCCTTATCGAATGTTTGTTCGCTATATGTATACTATAATACGAACGAGTGTTCCGCATAACGTCACACGTGTGTCATTTTGGACAAAT
binding result (gp6 [2]; 89 bp duplex): binds

B2: B23_Swt (gp6 site) (dsDNA)
DNA 1: GTTACTACTCGAGCGATTTGTCCAAAATGACACACGTGTGACGTTATGCGG
DNA 2: CCGCATAACGTCACACGTGTGTCATTTTGGACAAAT
binding result (gp6 K38A): no binding | binding result (gp6 [3]): binds

B3: B23_Smns (triple mutant gp6 site) (dsDNA)
DNA 1: GTTACTACTCGAGCGATTTGTCCAAAATTACCCACGTATGACGTTATGCGG
DNA 2: CCGCATAACGTCATACGTGGGTAATTTTGGACAAAT
binding result (gp6 [2]; 36 bp duplex): no binding
